{
  "source": "paper PMC12219675",
  "about": "(Nature Communications, 2025)",
  "target": "the molecule itself",
  "experiment": "thioflavin T fluorescence",
  "data": [
    {"protein": "G175S PMEL CAF domain (residues 148-223) (domain or fragment) SFVYVWKTWGQYWQVLGGPVSGLSIGTSRAMLGTHTMEVTVYHRRGSRSYVPLAHSSSAFTITDQVPFSVSVSQLR", "values": [
      {"measurement": "polymerisation (ThT fluorescence) relative to the wild type", "result": "~4", "unit": "fold"}
    ]}
  ]
}
